Assay results reported in the supplement of paper PMC12764529.
± gives the half width of the 95% confidence interval.

Assays:
[1] = folding stability dG unfold from chymotrypsin proteolysis; higher = more stable
Method in brief: (§1)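 Unfolding free energy was derived, per protease or combined, by relating Bayesian-fitted K50 values from sequencing counts to a sequence-predicted unfolded-state K50 and a shared folded-state K50. The underlying digests exposed cysteine-free mini-proteins under 80 residues, in a PA-tagged cDNA display construct, to trypsin and chymotrypsin at 11 threefold-diluted concentrations and to a no-protease condition. A filter kept only designs with AlphaFold2 dimer inter-PAE above 15.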

[2] = folding stability dG unfold (combined trypsin and chymotrypsin); higher = more stable
Method in brief: as §1

[3] = folding stability dG unfold from trypsin proteolysis; higher = more stable
Method in brief: as §1

Sequence	folding stability dG unfold [1] [kcal/mol]	folding stability dG unfold [2] [kcal/mol]	folding stability dG unfold [3] [kcal/mol]
SAPDPEQRKKNREQQEKNERMIPIQIHVYDKDGKWKPIGPVWFKDPDVPIDDLVPTFHDEGFDYVSISISAG [r14_318_TrROS]	0.209 ± 0.23	0.299 ± 0.21	0.153 ± 0.15
SAGGSAGGSAGLELTVGDVPVDVYVDPDTERALAYFPLFNRVAIVDLPTGKVYVVPLDDILSAGGSAGGSAG [r3_137_TrMRF]	1.11 ± 0.14	1.15 ± 0.076	1.25 ± 0.04
SAGGSAGGMELLPDGTLVLTLKAPSLEEALKAAEALAPPGAEVEIRFDEETKEVVIVIKLPPPESAGGSAGG [r6_859_TrROS_Hall]	4.06 ± 0.046	3.85 ± 0.082	2.46 ± 0.1
SAGGSAGGSKLKPFPIKLPGDLSMTIVELPEDPRFIVTVWHPDGDKPIDSIEFEPDEFEANVGSAGGSAGGS [r20_190_TrMRF]	0.793 ± 0.033	0.591 ± 0.078	0.285 ± 0.023
SAGGDPGKPTSVTLTLTVPKDKKTVKLEVTFNPETGEAVITFPGSSKTVTLPFGSLPDVLDAAKKLLYSAGG [r13_439_TrMRF]	2.65 ± 0.035	2.49 ± 0.07	2.31 ± 0.063
SAGGSAGGSAGWGWISVSITFEMEHYDEDGKPKHEHPMPMTIQIPVVRVDPKNGKLEPMPSAGGSAGGSAGG [r17_413_TrROS]	2.58 ± 0.065	2.24 ± 0.2	1.83 ± 0.095
SAGGSAGGSAKKPTAEEILKKLKLPEGAKIVKIEVEYDKKTKKVTIKIEIKVNGKTYTFEIKSAGGSAGGSA [r18_354_TrROS_Hall]	4.39 ± 0.11	3.94 ± 0.18	2.81 ± 0.15
GMNLKETTVTIPLKVKSEEEAKKKAEEIANELKKKYPDIIEIKIEIKEIDKETGIVIITIKFKAKNSSVLLS [r1_52_JUSTAS]	1.27 ± 0.14	2 ± 0.55	2.18 ± 0.33
SAGGSAGGSAGGMITVEYDPSRPVYTVTVTDPTTGKTTVIDVPRDDLEQALALAEALLKSAGGSAGGSAGGS [r10_1117_JUSTAS]	1.95 ± 0.03	1.67 ± 0.064	0.647 ± 0.046
SASPWIQKLAEEIADELAKENGWEEVKFTVTLPIRMPMYRYDPNGKKEPHDMWMWIKFEVTARVPPGDPSAG [r14_232_TrROS]	2.01 ± 0.18	2.14 ± 0.24	2.28 ± 0.061
SAGGKKIKAKVIEIKKIGDKVLVTIERPDGSPDEVLIDKKEVAEKITPESEVEIEVFPDGSVKIKVGSAGGS [r16_2_TrMRF]	2.03 ± 0.13	2.15 ± 0.19	1.96 ± 0.087
SMKVIIIERPDESGVPVVIVLPEEEALELYRKLFNVPMSVEEFAEKLKELNPNVKVEVVPLEEVSEEVLLSA [r9_1085_JUSTAS]	2.28 ± 0.058	2.35 ± 0.18	2.23 ± 0.086
SAGGTFQVKDPNGKQKPVQLRVRITFEFKGGDKQTFEIEVEGATVDDLREFANSLMNKGFKPVSIEIWSAGG [r13_227_TrROS]	2.03 ± 0.047	1.88 ± 0.048	1.595 ± 0.0094
SAMVITTSLEEARKRTGLSESASPEEVRAAVEALIAAETAAGVTLLAIELLEVGDTWTLRVEIERAGGVSAG [r14_158_JUSTAS]	1.72 ± 0.068	2.07 ± 0.077	2.36 ± 0.057
SAGGSAGGSAGGKPKLTLTLTLKRTVKNKNGKTTEKTLTLTLTFDSKEEAENALKELGFSAGGSAGGSAGGS [r10_1062_TrROS_Hall]	2.92 ± 0.042	2.67 ± 0.099	2.18 ± 0.033
SAGGGSFINISKKEIAEAISKLIGKDYPLEDVKVSVTTLPENKTIINVEIKLPNTTETLYIPILFDVSAGGS [r16_42_TrMRF]	1.7 ± 0.018	1.91 ± 0.068	2.09 ± 0.094
SAGGSAGGSAMTLNVPDAGGKTYTVEVLSYDPVKNTWTLLNPSTSETITITAEEAAKIKAAASAGGSAGGSA [r18_161_JUSTAS]	2.01 ± 0.066	2.1 ± 0.11	2.01 ± 0.072
